Assay results as given in FireProtDB (doi:10.1021/bi015547k).

Conditions: Pseudomonas putida; pH 7; 25 °C; Urea; CD; potassium phosphate 20 mM; reversible: yes; whole UniProt chain shown

B1: Steroid Delta-isomerase wild type, P07445 (protein)
chain: MNLPTAQEVQGLMARYIELVDVGDIEAIVQMYADDATVEDPFGQPPIHGREQIAAFYRQGLGGGKVRACLTGPVRASHNGCGAMPFRVEMVWNGQPCALDVIDVMRFDEHGRIQTMQAYWSEVNLSVREPQ
For B1, the denaturant m value was 3.39 kcal/mol/M, the “denaturant midpoint (higher = more stable)” value was 5.22 M and the unfolding free energy was 24.3 kcal/mol.
